The values that follow come from CN117384291A (WUHAN ABCLONAL INC, dated 2024).

The target in the experiment is T1, 人SALL4蛋白 (human, UniProt Q9UJQ4 1-1053, limits assumed).
T1 construct: Endogenous SALL4 in fixed tissue sections; also called human SALL4
T1 sequence (looked up): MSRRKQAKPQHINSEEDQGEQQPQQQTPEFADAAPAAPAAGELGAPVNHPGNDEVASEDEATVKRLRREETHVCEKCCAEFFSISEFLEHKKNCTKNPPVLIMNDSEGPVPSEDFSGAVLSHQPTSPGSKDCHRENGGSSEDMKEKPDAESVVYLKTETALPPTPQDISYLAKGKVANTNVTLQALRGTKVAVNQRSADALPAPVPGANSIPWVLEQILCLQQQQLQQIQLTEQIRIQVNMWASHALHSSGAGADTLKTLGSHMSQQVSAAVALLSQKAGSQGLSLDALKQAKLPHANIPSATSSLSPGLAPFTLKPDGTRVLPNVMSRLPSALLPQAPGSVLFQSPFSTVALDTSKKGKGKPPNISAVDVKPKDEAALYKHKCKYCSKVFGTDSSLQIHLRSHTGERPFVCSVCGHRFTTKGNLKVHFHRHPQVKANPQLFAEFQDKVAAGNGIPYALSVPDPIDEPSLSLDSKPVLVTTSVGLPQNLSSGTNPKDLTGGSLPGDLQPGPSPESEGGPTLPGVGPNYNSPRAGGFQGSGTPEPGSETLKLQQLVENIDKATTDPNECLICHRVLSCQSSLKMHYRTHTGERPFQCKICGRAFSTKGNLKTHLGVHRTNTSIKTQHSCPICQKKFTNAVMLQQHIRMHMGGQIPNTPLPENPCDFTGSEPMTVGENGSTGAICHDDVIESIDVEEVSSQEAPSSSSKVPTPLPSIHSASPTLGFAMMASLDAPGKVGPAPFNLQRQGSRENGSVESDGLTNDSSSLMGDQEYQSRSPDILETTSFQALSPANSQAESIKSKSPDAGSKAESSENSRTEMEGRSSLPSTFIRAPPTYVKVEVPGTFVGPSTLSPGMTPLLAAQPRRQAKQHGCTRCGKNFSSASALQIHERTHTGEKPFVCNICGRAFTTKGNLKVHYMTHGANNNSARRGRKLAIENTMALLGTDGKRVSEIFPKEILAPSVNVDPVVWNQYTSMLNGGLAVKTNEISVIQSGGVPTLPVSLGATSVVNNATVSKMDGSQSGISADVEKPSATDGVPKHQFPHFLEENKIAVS
The experiment in a line: IHC on paraffin sections of human seminoma, primary antibody 1:100.

B1: 抗人SALL4兔单克隆抗体 (antibody, V domains shown)
VH: QSLEESGGRLVTPGGSLTLTCTVSGFSLSSNSITWVRQAPGKGLEWIGTMNIDNSTYYMSWAKGRLTISKTSTTVTLKMTSLTTEDTATYFCARIAVVSNTDIWGPGTLVTVSF
VL: AQALTQTPSSVSAAVGGTVTISCQSSQNVYDANALSWYQQKPGQPPKRLIYSASTLASGVPSRFKGSGSGTQFTLTISGVQCDDAASYYCAGVYYGKIGFGGGTEVVVKG
notes: also called 试验例2制备的抗人SALL4兔单克隆抗体; 识别人SALL4的兔单克隆抗体
In the case of B1, the binding result is given as “binds”.
